Test results from publication PMC4526461 (The Biochemical journal, 2015).
Several values for one entry are separate records, joined by “and”; a condition that tells them apart may be missing. Identical values can stand only once.

Target: the molecule itself
Experiment: non-reducing SDS/PAGE and Western blot

B1: recombinant mouse neutral sphingomyelinase-2 with C-terminal FLAG and 6xHis tags (pET-32a-nSMase-2-FLAG-6xHis), expressed in Rosetta2 (DE3) pLysS (enzyme, UniProt Q9JJY3 1-655, looked up)
chain: MVLYTTPFPNSCLSALHAVSWALIFPCYWLVDRLLASFIPTTYEKRQRADDPCCLQLFCTVLFTPVYLALLVAALPFAFLGFIFWSPLQSARRPYSYSRLEDKNPAGGAALLSEWKGTGAGKSFCFATANVCLLPDSLARLNNVFNTQARAKEIGQRIRNGAARPQIKIYIDSPTNTSISAASFSSLVSPQGGDGSRAVPGSIKRTASVEYKGDGGRHPSDEAANGPASGEQADGSLEDSCIVRIGGEEGGRPQEADDPAAGSQARNGAGGTPKGQTPNHNQRDGDSGSLGSPSASRESLVKARAGQDSGGSGEPGANSKLLYKTSVVKKAAARRRRHPDEAFDHEVSAFFPANLDFLCLQEVFDKRAAAKLKEQLHGYFEYILYDVGVYGCHGCCNFKCLNSGLFFASRYPVMDVAYHCYPNGCSFDALASKGALFLKVQVGSTPQDQRIVGYIACTHLHAPPEDSAVRCEQLDLLQDWLADFRKSTSSTSTANPEELVVFDVICGDLNFDNCSSDDKLEQQHSLFTRYKDPCRLGPGEEKPWAIGTLLDTNGLYDEDVCTPDNLQKVLESEEGRREYLAFPTSKSPGAGQKGRKDLLKGNGRRIDYMLHAEEGLCPDWKAEVEEFSFITQLSGLTDHLPVAMRLMVSAGEEEA
stoichiometry N: 2 and 3

B2: nSMase-2 single-point mutant Cys617Ser (enzyme, mouse, UniProt Q9JJY3 1-655, looked up)
chain: MVLYTTPFPNSCLSALHAVSWALIFPCYWLVDRLLASFIPTTYEKRQRADDPCCLQLFCTVLFTPVYLALLVAALPFAFLGFIFWSPLQSARRPYSYSRLEDKNPAGGAALLSEWKGTGAGKSFCFATANVCLLPDSLARLNNVFNTQARAKEIGQRIRNGAARPQIKIYIDSPTNTSISAASFSSLVSPQGGDGSRAVPGSIKRTASVEYKGDGGRHPSDEAANGPASGEQADGSLEDSCIVRIGGEEGGRPQEADDPAAGSQARNGAGGTPKGQTPNHNQRDGDSGSLGSPSASRESLVKARAGQDSGGSGEPGANSKLLYKTSVVKKAAARRRRHPDEAFDHEVSAFFPANLDFLCLQEVFDKRAAAKLKEQLHGYFEYILYDVGVYGCHGCCNFKCLNSGLFFASRYPVMDVAYHCYPNGCSFDALASKGALFLKVQVGSTPQDQRIVGYIACTHLHAPPEDSAVRCEQLDLLQDWLADFRKSTSSTSTANPEELVVFDVICGDLNFDNCSSDDKLEQQHSLFTRYKDPCRLGPGEEKPWAIGTLLDTNGLYDEDVCTPDNLQKVLESEEGRREYLAFPTSKSPGAGQKGRKDLLKGNGRRIDYMLHAEEGLSPDWKAEVEEFSFITQLSGLTDHLPVAMRLMVSAGEEEA
decrease in multimer to monomer ratio against wild-type: ~50%

B3: nSMase-2 single-point mutant Cys561Ser (enzyme, mouse, UniProt Q9JJY3 1-655, looked up)
chain: MVLYTTPFPNSCLSALHAVSWALIFPCYWLVDRLLASFIPTTYEKRQRADDPCCLQLFCTVLFTPVYLALLVAALPFAFLGFIFWSPLQSARRPYSYSRLEDKNPAGGAALLSEWKGTGAGKSFCFATANVCLLPDSLARLNNVFNTQARAKEIGQRIRNGAARPQIKIYIDSPTNTSISAASFSSLVSPQGGDGSRAVPGSIKRTASVEYKGDGGRHPSDEAANGPASGEQADGSLEDSCIVRIGGEEGGRPQEADDPAAGSQARNGAGGTPKGQTPNHNQRDGDSGSLGSPSASRESLVKARAGQDSGGSGEPGANSKLLYKTSVVKKAAARRRRHPDEAFDHEVSAFFPANLDFLCLQEVFDKRAAAKLKEQLHGYFEYILYDVGVYGCHGCCNFKCLNSGLFFASRYPVMDVAYHCYPNGCSFDALASKGALFLKVQVGSTPQDQRIVGYIACTHLHAPPEDSAVRCEQLDLLQDWLADFRKSTSSTSTANPEELVVFDVICGDLNFDNCSSDDKLEQQHSLFTRYKDPCRLGPGEEKPWAIGTLLDTNGLYDEDVSTPDNLQKVLESEEGRREYLAFPTSKSPGAGQKGRKDLLKGNGRRIDYMLHAEEGLCPDWKAEVEEFSFITQLSGLTDHLPVAMRLMVSAGEEEA
decrease in multimer to monomer ratio against wild-type: ~50%
